Data taken from the supplement of paper PMC7877785.
± gives the uncertainty stated by the source.

Experiment: self-splicing fitness, log relative to wild type (ln ratio); higher = more splicing; Tetrahymena group I intron in knt gene, E. coli kanamycin selection, DiMSum; sequences stand for … in CUCUCU…GGAGGGAAAAGUUAUCAGGCAUGCACCUGGUAGCUAGUCUUUAAACCAAUAGAUUGCAUCGGUUUAAAAGGCAAGACCGUCAAAUUGCGGGAAAGGGGUCAACAGCCGUUCAGUACCAAGUCUCAGGGGAAACUUUGAGAUGGCCUUGCAAAGGGUAUGGUAAUAAGCUGACGGACAUGGUCCUAACCACGCAGCCAAGUCCUAAGUCAACAGAUCUUCUGUUGAUAUGGAUGCAGUUCACAGACUAAAUGUCGGUCGGGGAAGAUGUAUUCUUCUCAUAAGAUAUAGUCGGACCUCUCCUUAAUGGGAGCUAGCGGAUGAAGUGAUGCAACACUGGAGCCGCUGGGAACUAAUUUGUAUGCGAAAGUAUAUUGAUUAGUUUUGGAGUACUCGUGGUCG
Method in brief: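 Six replicate transformations of E. coli BL21(DE3) with a pET-22b(+) library were grown overnight at 37°C or 30°C. The library randomised all eight P1ex-region intron nucleotides, the intron lying in the knt kanamycin-resistance gene, and plates were LB agar with or without 25 μg/mL kanamycin plus 100 μg/mL carbenicillin, 50 μM IPTG and 0.2% rhamnose. Pooled colonies were amplicon-sequenced on an Illumina HiSeq 2500, and fitness is the DiMSum error-weighted combination of wild-type-normalised replicate fold changes, kanamycin versus none.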

| Sequence | self-splicing fitness (ln) (30 °C) | self-splicing fitness (ln) (37 °C) |
| --- | --- | --- |
| AAUAAGCAAUAUUACGCGUG | -0.604 ± 0.071 | -0.455 ± 0.089 |
| AAUAAGCAAUAUUACGGACC | -1.54 ± 0.12 | -0.72 ± 0.15 |
| AAUAAGCAAUAUUACGGCAA | -0.158 ± 0.09 | -0.3 ± 0.12 |
| AAUAAGCAAUAUUACGUAAA | -1.89 ± 0.1 | -1.22 ± 0.14 |
| AAUAAGCAAUAUUACGUCUU | 0.0603 ± 0.06 | -0.0919 ± 0.075 |
| AAUAAGCAAUAUUACGUGAU | -2.97 ± 0.14 | -1.23 ± 0.12 |
| AAUAAGCAAUAUUACGUGGA | -3.22 ± 0.22 | -2.42 ± 0.19 |
| AAUAAGCAAUAUUACGUGUA | -2.16 ± 0.12 | -1.12 ± 0.11 |
| AAUAAGCAAUAUUACGUGUC | -3 ± 0.14 | -0.777 ± 0.14 |
| AAUCAGCAAUAUUACGAAUA | 0.443 ± 0.16 | -0.266 ± 0.12 |
| AAUCAGCAAUAUUACGAAUC | -0.973 ± 0.1 | 0.372 ± 0.12 |
| AAUCAGCAAUAUUACGACUC | -0.0136 ± 0.086 | 0.129 ± 0.11 |
| AAUCAGCAAUAUUACGAGUA | -1.43 ± 0.081 | 0.415 ± 0.083 |
| AAUCAGCAAUAUUACGAUAG | -1.3 ± 0.1 | -0.239 ± 0.1 |
| AAUCAGCAAUAUUACGCACA | -0.245 ± 0.063 | 0.0601 ± 0.085 |
| AAUCAGCAAUAUUACGCGAU | -2.8 ± 0.14 | -2.07 ± 0.14 |
| AAUCAGCAAUAUUACGCUGG | -2.63 ± 0.099 | -2.87 ± 0.087 |
| AAUCAGCAAUAUUACGCUGU | -3.28 ± 0.14 | -1.59 ± 0.11 |
| AAUCAGCAAUAUUACGGAGC | -2.64 ± 0.17 | -0.807 ± 0.16 |
| AAUCAGCAAUAUUACGGCAC | -0.508 ± 0.086 | -0.24 ± 0.12 |
| AAUCAGCAAUAUUACGGCUU | 0.103 ± 0.067 | 0.17 ± 0.077 |
| AAUCAGCAAUAUUACGGGCG | -0.742 ± 0.059 | -0.382 ± 0.075 |
| AAUCAGCAAUAUUACGGUGU | 0.0362 ± 0.059 | 0.393 ± 0.072 |
| AAUCAGCAAUAUUACGUAAC | -1.33 ± 0.11 | -0.141 ± 0.11 |
| AAUCAGCAAUAUUACGUCGG | -1.88 ± 0.1 | -1.02 ± 0.14 |

| Sequence | self-splicing fitness (ln) (30 °C) | self-splicing fitness (ln) (37 °C) |
| --- | --- | --- |
| AAUCAGCAAUAUUACGUGCA | -0.181 ± 0.067 | 0.221 ± 0.084 |
| AAUCAGCAAUAUUACGUGGA | -0.585 ± 0.072 | -0.433 ± 0.076 |
| AAUCAGCAAUAUUACGUGUA | -0.538 ± 0.058 | 0.135 ± 0.068 |
| AAUCAGCAAUAUUACGUUAA | -0.816 ± 0.072 | -0.587 ± 0.077 |
| AAUGAGCAAUAUUACGAAGG | -2.56 ± 0.43 | -3.54 ± 0.43 |
| AAUGAGCAAUAUUACGAAGU |  | -2.16 ± 0.33 |
| AAUGAGCAAUAUUACGAGUA | -3.91 ± 0.25 | -2.54 ± 0.27 |
| AAUGAGCAAUAUUACGCAAA |  | -2.46 ± 0.48 |
| AAUGAGCAAUAUUACGCACA | -2.31 ± 0.29 | -1.38 ± 0.2 |
| AAUGAGCAAUAUUACGCCAC | -1.83 ± 0.22 | -2.41 ± 0.49 |
| AAUGAGCAAUAUUACGCCAU | -2.37 ± 0.39 | -1.9 ± 0.48 |
| AAUGAGCAAUAUUACGCCUA | -1.13 ± 0.21 | -1.62 ± 0.25 |
| AAUGAGCAAUAUUACGCCUU | -2.11 ± 0.13 | -1.43 ± 0.15 |
| AAUGAGCAAUAUUACGCGAC |  | -1.67 ± 0.48 |
| AAUGAGCAAUAUUACGCUAG |  | -1.93 ± 0.36 |
| AAUGAGCAAUAUUACGUAAC | -3.92 ± 0.27 | -2.45 ± 0.21 |
| AAUGAGCAAUAUUACGUGAU | -3.8 ± 0.29 | -0.708 ± 0.2 |
| AAUGAGCAAUAUUACGUUCA | -1.46 ± 0.12 | -0.27 ± 0.13 |
| AAUGAGCAAUAUUACGUUGG | -3.18 ± 0.23 | -3.55 ± 0.27 |
| AAUGAGCAAUAUUACGUUUC | -4.31 ± 0.24 | -2.98 ± 0.25 |
| AAUUAGCAAUAUUACGAAUC | -2.34 ± 0.16 | -0.829 ± 0.16 |
| AAUUAGCAAUAUUACGAAUG | -1.55 ± 0.12 | 0.187 ± 0.14 |
| AAUUAGCAAUAUUACGACCA | -0.406 ± 0.1 | 0.48 ± 0.12 |
| AAUUAGCAAUAUUACGACUC | -0.246 ± 0.11 | 0.0749 ± 0.16 |
